Patent US20260098059A1 (ENDOMET BIOSCIENCES, published 2026)
Several values for one entry are separate records, joined by “and”; a condition that tells them apart may be missing. Identical values can stand only once. Bridges are numbered along the chain shown (N, C = ends). Where no end group is shown, it is not given here. [ ]: non-standard residue; d: D form. The star is where a group is joined. NMeW = CN[C@@H](Cc1c[nH]c2ccccc12)C(=O)O; αMeW = C[C@](N)(Cc1c[nH]c2ccccc12)C(=O)O; Stearoyl = CCCCCCCCCCCCCCCCCC(=O)*; αMeF = C[C@](N)(Cc1ccccc1)C(=O)O; 2Pal = N[C@@H](Cc1ccccn1)C(=O)O; Chg = N[C@H](C(=O)O)C1CCCCC1; αMeV = CC(C)[C@](C)(N)C(=O)O; αMeS = C[C@](N)(CO)C(=O)O; NMeA = CN[C@@H](C)C(=O)O

T1: β-catenin (UniProt P35222 134-665, limits assumed, biotinylated in the SPR and plate assays)
T1 construct: also called beta catenin; biotinylated β-catenin
T1 sequence (looked up): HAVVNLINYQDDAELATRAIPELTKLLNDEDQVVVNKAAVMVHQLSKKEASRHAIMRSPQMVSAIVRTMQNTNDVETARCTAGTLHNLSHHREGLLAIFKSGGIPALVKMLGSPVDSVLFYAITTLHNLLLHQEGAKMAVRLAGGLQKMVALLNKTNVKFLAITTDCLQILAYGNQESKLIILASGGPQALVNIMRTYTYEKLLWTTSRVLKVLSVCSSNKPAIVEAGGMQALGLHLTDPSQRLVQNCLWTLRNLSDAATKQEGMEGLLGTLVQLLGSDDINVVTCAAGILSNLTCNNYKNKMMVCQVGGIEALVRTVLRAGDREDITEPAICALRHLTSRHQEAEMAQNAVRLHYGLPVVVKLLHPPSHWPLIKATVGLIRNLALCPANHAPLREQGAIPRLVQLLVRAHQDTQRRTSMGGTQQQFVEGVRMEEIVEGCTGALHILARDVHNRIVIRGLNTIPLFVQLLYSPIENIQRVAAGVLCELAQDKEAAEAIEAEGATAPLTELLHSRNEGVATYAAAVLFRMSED

B1: SEQ ID NO: 197 (peptide)
peptide: MWFLICFW
HELM: PEPTIDE1{[ac].M.W.F.L.I.C.F.W.[O=C(O)CCCN[*:1]]}$$$$V2.0
SMILES: CC[C@H](C)[C@H](NC(=O)[C@H](CC(C)C)NC(=O)[C@H](Cc1ccccc1)NC(=O)[C@H](Cc1c[nH]c2ccccc12)NC(=O)[C@H](CCSC)NC(C)=O)C(=O)N[C@@H](CS)C(=O)N[C@@H](Cc1ccccc1)C(=O)N[C@@H](Cc1c[nH]c2ccccc12)C(=O)NCCCC(=O)O
B2: SEQ ID NO: 102 (peptide)
peptide: WFLISFW
HELM: PEPTIDE1{[meW].F.L.I.S.F.W.[am]}$$$$V2.0
SMILES: CC[C@H](C)[C@H](NC(=O)[C@H](CC(C)C)NC(=O)[C@H](Cc1ccccc1)NC(=O)[C@H](Cc1c[nH]c2ccccc12)NC)C(=O)N[C@@H](CO)C(=O)N[C@@H](Cc1ccccc1)C(=O)N[C@@H](Cc1c[nH]c2ccccc12)C(N)=O
B3: SEQ ID NO: 36 (peptide)
peptide: WWESILDEHVQRVWG
HELM: PEPTIDE1{W.[meW].E.S.I.L.D.E.H.V.Q.R.V.W.G.[am]}$$$$V2.0
SMILES: CC[C@H](C)[C@H](NC(=O)[C@H](CO)NC(=O)[C@H](CCC(=O)O)NC(=O)[C@H](Cc1c[nH]c2ccccc12)N(C)C(=O)[C@@H](N)Cc1c[nH]c2ccccc12)C(=O)N[C@@H](CC(C)C)C(=O)N[C@@H](CC(=O)O)C(=O)N[C@@H](CCC(=O)O)C(=O)N[C@@H](Cc1c[nH]cn1)C(=O)N[C@H](C(=O)N[C@@H](CCC(N)=O)C(=O)N[C@@H](CCCNC(=N)N)C(=O)N[C@H](C(=O)N[C@@H](Cc1c[nH]c2ccccc12)C(=O)NCC(N)=O)C(C)C)C(C)C
B4: SEQ ID NO: 111 (peptide)
peptide: WFLISFW
HELM: PEPTIDE1{[meW].F.L.I.S.F.W}$$$$V2.0
SMILES: CC[C@H](C)[C@H](NC(=O)[C@H](CC(C)C)NC(=O)[C@H](Cc1ccccc1)NC(=O)[C@H](Cc1c[nH]c2ccccc12)NC)C(=O)N[C@@H](CO)C(=O)N[C@@H](Cc1ccccc1)C(=O)N[C@@H](Cc1c[nH]c2ccccc12)C(=O)O
B5: SEQ ID NO: 186 (peptide)
peptide: KMWFLICFWE
HELM: PEPTIDE1{[ac].K.M.W.F.L.I.C.F.W.E}$PEPTIDE1,PEPTIDE1,2:R3-11:R3$$$V2.0
SMILES: CC[C@H](C)[C@@H]1NC(=O)[C@H](CC(C)C)NC(=O)[C@H](Cc2ccccc2)NC(=O)[C@H](Cc2c[nH]c3ccccc23)NC(=O)[C@H](CCSC)NC(=O)[C@@H](NC(C)=O)CCCCNC(=O)CC[C@@H](C(=O)O)NC(=O)[C@H](Cc2c[nH]c3ccccc23)NC(=O)[C@H](Cc2ccccc2)NC(=O)[C@H](CS)NC1=O
B6: SEQ ID NO: 450 (peptide)
peptide: WAESILKEHVQRVWG
HELM: PEPTIDE1{[ac].W.[meA].E.S.I.L.K.E.H.V.Q.R.V.W.G.[am]}$PEPTIDE1,PEPTIDE1,4:R3-8:R3$$$V2.0
SMILES: CC[C@H](C)[C@@H]1NC(=O)[C@H](CO)NC(=O)[C@@H](NC(=O)[C@H](C)N(C)C(=O)[C@H](Cc2c[nH]c3ccccc23)NC(C)=O)CCC(=O)NCCCC[C@@H](C(=O)N[C@@H](CCC(=O)O)C(=O)N[C@@H](Cc2c[nH]cn2)C(=O)N[C@H](C(=O)N[C@@H](CCC(N)=O)C(=O)N[C@@H](CCCNC(=N)N)C(=O)N[C@H](C(=O)N[C@@H](Cc2c[nH]c3ccccc23)C(=O)NCC(N)=O)C(C)C)C(C)C)NC(=O)[C@H](CC(C)C)NC1=O
B7: SEQ ID NO: 455 (peptide)
peptide: WXQKILNDHGQRVW
HELM: PEPTIDE1{[ac].W.[Aib].Q.K.I.L.N.D.H.[O=C([C@@H](N[*:1])C1CCCCC1)[*:2]].Q.R.V.W.[am]}$PEPTIDE1,PEPTIDE1,5:R3-9:R3$$$V2.0
SMILES: CC[C@H](C)[C@@H]1NC(=O)[C@@H](NC(=O)[C@H](CCC(N)=O)NC(=O)C(C)(C)NC(=O)[C@H](Cc2c[nH]c3ccccc23)NC(C)=O)CCCCNC(=O)C[C@@H](C(=O)N[C@@H](Cc2c[nH]cn2)C(=O)N[C@H](C(=O)N[C@@H](CCC(N)=O)C(=O)N[C@@H](CCCNC(=N)N)C(=O)N[C@H](C(=O)N[C@@H](Cc2c[nH]c3ccccc23)C(N)=O)C(C)C)C2CCCCC2)NC(=O)[C@H](CC(N)=O)NC(=O)[C@H](CC(C)C)NC1=O

target: T1, β-catenin; assay: competitive FP
Method in brief: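 Competitive fluorescence polarization with inhibitor peptide serially diluted from 10 nM to 30 uM; polarization read at 470 nm excitation, 520 nm emission. Experiments performed three times.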

| Binder | Kd |
| --- | --- |
| H-MWFLISSW-OH [SEQ ID NO: 96] | > 10000 nM and ≤ 30000 nM |
| B1 | > 400 nM and ≤ 1000 nM |
| B2 | ≤ 400 nM |
| B3 | ≤ 400 nM |
| H-MWESILDEH[αMeV]QRVWG-NH2 [SEQ ID NO: 34] | ≤ 400 nM |
| H-MWE[αMeS]ILDEHVQRVWG-NH2 [SEQ ID NO: 35] | ≤ 400 nM |
| MWFLISFWG-NH2 [SEQ ID NO: 108] | > 400 nM and ≤ 1000 nM |
| B4 | > 400 nM and ≤ 1000 nM |
| H-MWFLISFW-OH [SEQ ID NO: 112] | > 400 nM and ≤ 1000 nM |
| H-KMWILISFWG-OH [SEQ ID NO: 122] | ≤ 400 nM |
| H-HMWILISFWG-OH [SEQ ID NO: 123] | ≤ 400 nM |
| B5 | > 400 nM and ≤ 1000 nM |
| H-MWFLICFWG-OH [SEQ ID NO: 42] | ≤ 400 nM |
| H-MWILISFWG-OH [SEQ ID NO: 43] | > 400 nM and ≤ 1000 nM |
| H-MWILICFWG-OH [SEQ ID NO: 116] | > 400 nM and ≤ 1000 nM |
| H-MWILIC[αMeF]WG-OH [SEQ ID NO: 121] | ≤ 400 nM |
| H-KWILISFWG-OH [SEQ ID NO: 125] | > 400 nM and ≤ 1000 nM |
| H-HWILISFWG-OH [SEQ ID NO: 126] | ≤ 400 nM |

| Binder | Kd |
| --- | --- |
| H-WWILISFWG-OH [SEQ ID NO: 127] | > 400 nM and ≤ 1000 nM |
| H-MWILIS[αMeF]WG-OH [SEQ ID NO: 128] | > 400 nM and ≤ 1000 nM |
| H-MWILISSWG-OH [SEQ ID NO: 129] | > 400 nM and ≤ 1000 nM |
| H-MW[αMeF]LICFWG-OH [SEQ ID NO: 131] | ≤ 400 nM |
| H-M[αMeW]ILICFWG-OH [SEQ ID NO: 132] | ≤ 400 nM |
| H-MWILI[αMeS]FWG-OH [SEQ ID NO: 136] | > 400 nM and ≤ 1000 nM |
| H-MWILI[dT]FWG-OH [SEQ ID NO: 137] | > 400 nM and ≤ 1000 nM |
| H-DWFLICFWG-OH [SEQ ID NO: 142] | ≤ 400 nM |
| H-MWFLIC[2Pal]WG-OH [SEQ ID NO: 148] | > 400 nM and ≤ 1000 nM |
| H-MWFLIQFYG-OH [SEQ ID NO: 149] | > 400 nM and ≤ 1000 nM |
| H-MWFLIKFYG-OH [SEQ ID NO: 151] | > 400 nM and ≤ 1000 nM |
| B6 | > 400 nM and ≤ 1000 nM |
| B7 | ≤ 400 nM |
| Ac-W[NMeA]QKILNDH[Chg]QAVW-NH2 (lactam 4-8) [SEQ ID NO: 458] | > 400 nM and ≤ 1000 nM |
| Ac-W[NMeA]QKILDEH[Chg]EDVWK-NH2 (lactam 11-15, 4-8 (inferred)) [SEQ ID NO: 464] | > 400 nM and ≤ 1000 nM |
| Stearoyl-GW[NMeW]ESILDEHVQRVWG-OH [SEQ ID NO: 2] | ≤ 400 nM |
| MMVQSLFVPPVK (not fully specified; cyclo-glutaryl-*MM-NMeNva-QSLF-NMeNva-PP-NMeNva-K*-CONH2) [SEQ ID NO: 3] | > 10000 nM and ≤ 30000 nM |

target: T1, β-catenin; assay: cell-based or functional assay

| Binder | Wnt Reporter EC50 |
| --- | --- |
| H-MWFLISSW-OH [SEQ ID NO: 96] | > 7.5 µM and ≤ 15 µM |
| B1 | ≤ 7.5 µM |
| B2 | > 15 µM and ≤ 22.5 µM |
| B3 | > 30 µM |
| H-MWESILDEH[αMeV]QRVWG-NH2 [SEQ ID NO: 34] | > 30 µM |
| H-MWE[αMeS]ILDEHVQRVWG-NH2 [SEQ ID NO: 35] | > 30 µM |
| MWFLISFWG-NH2 [SEQ ID NO: 108] | > 7.5 µM and ≤ 15 µM |
| B4 | > 7.5 µM and ≤ 15 µM |
| H-MWFLISFW-OH [SEQ ID NO: 112] | ≤ 7.5 µM |
| H-KMWILISFWG-OH [SEQ ID NO: 122] | > 22.5 µM and ≤ 30 µM |
| H-HMWILISFWG-OH [SEQ ID NO: 123] | ≤ 7.5 µM |
| B5 | > 30 µM |
| H-MWFLICFWG-OH [SEQ ID NO: 42] | ≤ 7.5 µM |
| H-MWILISFWG-OH [SEQ ID NO: 43] | ≤ 7.5 µM |
| H-MWILICFWG-OH [SEQ ID NO: 116] | ≤ 7.5 µM |
| H-MWILIC[αMeF]WG-OH [SEQ ID NO: 121] | ≤ 7.5 µM |
| H-KWILISFWG-OH [SEQ ID NO: 125] | > 22.5 µM and ≤ 30 µM |
| H-HWILISFWG-OH [SEQ ID NO: 126] | ≤ 7.5 µM |
| H-WWILISFWG-OH [SEQ ID NO: 127] | > 7.5 µM and ≤ 15 µM |
| H-MWILIS[αMeF]WG-OH [SEQ ID NO: 128] | > 7.5 µM and ≤ 15 µM |
| H-MWILISSWG-OH [SEQ ID NO: 129] | ≤ 7.5 µM |
| H-MW[αMeF]LICFWG-OH [SEQ ID NO: 131] | > 7.5 µM and ≤ 15 µM |
| H-M[αMeW]ILICFWG-OH [SEQ ID NO: 132] | > 7.5 µM and ≤ 15 µM |
| H-MWILI[αMeS]FWG-OH [SEQ ID NO: 136] | > 30 µM |
| H-MWILI[dT]FWG-OH [SEQ ID NO: 137] | > 15 µM and ≤ 22.5 µM |
| H-DWFLICFWG-OH [SEQ ID NO: 142] | ≤ 7.5 µM |
| H-MWFLIC[2Pal]WG-OH [SEQ ID NO: 148] | > 7.5 µM and ≤ 15 µM |
| H-MWFLIQFYG-OH [SEQ ID NO: 149] | > 7.5 µM and ≤ 15 µM |
| H-MWFLIKFYG-OH [SEQ ID NO: 151] | > 15 µM and ≤ 22.5 µM |
